{"source": "paper PMC9126943", "about": "“ADAMTS4-specific MR probe to assess aortic aneurysms in vivo using synthetic peptide libraries” (Nature Communications, 2022)", "key": {"[1]": {"molecular_target": "T1, ADAMTS4 (Homo sapiens, UniProt O75173)", "T1 construct": "purchased R&D systems 4307-AD-020", "T1 sequence (O75173 213-837)": "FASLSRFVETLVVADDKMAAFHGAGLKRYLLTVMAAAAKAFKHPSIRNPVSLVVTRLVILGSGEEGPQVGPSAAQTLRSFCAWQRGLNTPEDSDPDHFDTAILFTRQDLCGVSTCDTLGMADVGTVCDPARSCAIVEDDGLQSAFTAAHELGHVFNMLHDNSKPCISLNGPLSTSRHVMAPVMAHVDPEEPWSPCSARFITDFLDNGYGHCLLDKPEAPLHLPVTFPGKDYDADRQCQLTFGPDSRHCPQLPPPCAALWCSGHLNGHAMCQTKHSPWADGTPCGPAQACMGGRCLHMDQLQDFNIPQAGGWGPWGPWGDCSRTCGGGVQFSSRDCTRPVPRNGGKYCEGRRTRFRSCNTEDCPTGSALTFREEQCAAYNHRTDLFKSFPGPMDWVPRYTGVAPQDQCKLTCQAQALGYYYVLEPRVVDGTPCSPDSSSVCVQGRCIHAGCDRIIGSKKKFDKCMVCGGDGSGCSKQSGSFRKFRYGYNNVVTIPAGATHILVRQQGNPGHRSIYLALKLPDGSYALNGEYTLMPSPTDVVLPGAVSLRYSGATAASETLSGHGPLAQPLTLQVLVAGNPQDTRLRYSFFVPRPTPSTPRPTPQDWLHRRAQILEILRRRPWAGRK", "test": "Relaxivity at 3 Tesla, unbound and bound to ADAMTS4", "assay_type": "physicochemical", "conditions": "3 T, 1% BSA in PBS", "procedure": "One milliliter of a 1 µg/ml solution of the ADAMTS4-specific probe in 1% BSA in PBS buffer was measured in a reaction tube using a 3 T MRI scanner. 1% BSA in PBS buffer was used as a negative control. After each scan, 50 µl of a 0.2 µg/µl solution of ADAMTS4 (R&D systems, 4307-AD-020) was added to one reaction tube, while 50 µl of the 1% BSA in PBS buffer was added to the second reaction tube. Tubes were shaken and measured again. The following ADAMTS4 concentrations were measured: 0 µg, 10 µg, 20 µg, 30 µg, 40 µg, 50 µg, and 60 µg."}, "[2]": {"test": "Biodistribution and blood clearance by ICP-MS of Gd"}, "[3]": {"molecular_target": "T2, ADAMTS4 (Homo sapiens, UniProt O75173)", "T2 construct": "This is consistent with the recombinant proteins, we used in the screening process; purchased BioTeZ Berlin-Buch GmbH 30 400 102", "T2 sequence (O75173 213-685)": "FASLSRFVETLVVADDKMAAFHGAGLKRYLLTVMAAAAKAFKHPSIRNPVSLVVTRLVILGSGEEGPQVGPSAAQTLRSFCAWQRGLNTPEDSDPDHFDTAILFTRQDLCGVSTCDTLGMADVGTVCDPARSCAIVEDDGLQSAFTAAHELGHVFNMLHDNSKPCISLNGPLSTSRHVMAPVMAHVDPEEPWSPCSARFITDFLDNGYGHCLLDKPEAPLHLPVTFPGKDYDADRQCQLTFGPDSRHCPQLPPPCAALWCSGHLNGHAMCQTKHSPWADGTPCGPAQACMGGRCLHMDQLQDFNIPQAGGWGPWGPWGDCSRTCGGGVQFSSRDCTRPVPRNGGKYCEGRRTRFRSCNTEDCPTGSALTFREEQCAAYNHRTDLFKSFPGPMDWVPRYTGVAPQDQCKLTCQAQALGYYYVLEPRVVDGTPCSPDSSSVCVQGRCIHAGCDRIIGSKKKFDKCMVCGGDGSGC", "test": "MST instrument, ligand-dependent fluorescence change, Cy5-labeled peptides vs ADAMTS4 (incl. alanine scan)", "assay_type": "binding", "conditions": "Cy5-labeled peptide 3 nM, 25 °C, n = 3", "procedure": "Microscale thermophoresis (MST) was performed on a Monolith Pico (NanoTemper, Munich, Germany). The Cy5-labeled peptides were diluted into the MST buffer (150 mM NaCl, 50 mM TRIS-HCl, 5 mM CaCl2, and Tween-20) to reach a dilution of 6 nM. ADAMTS4, ADAMTS5, and ADAMTS1 were directly used with the supplied concentration. For ADAMTS4, the starting concentration was 4.96 µM, while for ADAMTS1 it was 4.88 µM and for ADAMTS5 it was 2.46 µM. […] 20 µl of the protein solutions were transferred into a PCR tube. 10 µl of this first vial was transferred into a second vial and mixed by pipetting with 10 µl of the MST buffer. The dilution series was continued 14 times. From tube 16, 10 µl were removed. Into all 16 tubes, 10 µl of the respective peptide solution were added and mixed by pipetting. The samples were incubated for 20 min and subsequently transferred to premium capillaries (NanoTemper, Munich, Germany). The capillaries were transferred into the Monolith tray and measured with 10% excitation power on the pico-red excitation on high MST power at 25 °C. Analysis was performed with MO.Affinity Analysis v3.0.1 (NanoTemper, Munich, Germany) and Origin 2022 (OriginLab Corporation, Northampton, MA). […] We checked for ADAMTS4 and the ADAMTS4-specific-Cy5-labeled probe via a saturation test for specifying the ligand-dependent fluorescence change. Therefore, the three highest ligand concentrations and the three lowest ligand concentrations of the measurement were used and centrifuged for 15 min at 16060 x g at 20 °C. Of each concentration, 7 µl were picked and mixed with 7 µl of a 10 M urea solution each. The samples were heated at 95 °C for 5 min and measured in the MST. […] Each measurement was repeated three times independently and the binding constant was calculated by merging all three measurements. […] The data were normalized using MO Affinity Analysis v3.0.1 and the fraction bound [−] was shown. […] Therefore, the percentage variance of the values to the average was plotted.\nAll measurements were performed with 10% LED power, high MST power and at 25 °C. The ligand dependent fluorescence change was used for determining the binding. […] The concentrations of the peptide were kept constant (3 nM in the measurement), while the proteins were diluted in the same manner as for ADAMTS4. […] The Cy5-labeled peptides (3 nM in the measurement) were kept constant, while ADAMTS4 was diluted in the same manner for each peptide (n=3 biologically independent measurements for each peptide; the data are presented as mean values ± SD). […] MST: microscale thermophoresis; nM: nanomolar; His: L-histidine; LED: light-emitting diode; n/a: not available; KD: binding constant."}, "[4]": {"conditions": "male ApoE−/− mice, i.v., n = 3 per time point"}}, "note": "Where a SMILES comes first, the peptide text is derived from it. Bridges are numbered along the chain shown (N, C = ends). The star is where a group is joined. Cy5(nonsulfonated) = CN1C(=CC=CC=CC2=[N+](CCCCCC(=O)*)c3ccccc3C2(C)C)C(C)(C)c2ccccc21; DOTA = O=C(O)CN1CCN(CC(=O)O)CCN(CC(=O)*)CCN(CC(=O)O)CC1"}
{"smiles": "N=C(N)NCCC[C@@H]1NC(=O)[C@H](CCCNC(=N)N)NC(=O)[C@H](CO)NC(=O)[C@@H](N)CSSC[C@@H](C(=O)N[C@@H](CO)C(=O)NCC(=O)NCC(=O)N[C@@H](CO)C(=O)NCC(=O)NCC(=O)N[C@@H](CCCCNC(=O)CN2CCN(CC(=O)O)CCN(CC(=O)O)CCN(CC(=O)O)CC2)C(=O)NCC(N)=O)NC(=O)CNC1=O", "note": "(Gd complex, metal not drawn) [ADAMTS4-specific probe] (H-CSRRGCSGGSGGK(DOTA)G-NH2; disulfide 1-6)", "values": [{"measurement": "longitudinal relaxivity, unbound probe", "setting": "[1]", "result": "3.4 ± 0.19", "unit": "mM⁻¹ s⁻¹"}, {"measurement": "longitudinal relaxivity, bound probe", "setting": "[1]; ADAMTS4 added", "result": "6.13 ± 0.73", "unit": "mM⁻¹ s⁻¹"}, {"measurement": "time of highest aortic uptake after intravenous injection", "setting": "[2]; ApoE−/− mice", "result": 15, "unit": "min"}, {"measurement": "blood clearance", "setting": "[2]; ApoE−/− mice, i.v., over 120 min", "result": "rapid blood clearance"}, {"measurement": "Gd levels in kidneys and urine", "setting": "[2]; [4]", "result": "Higher levels of Gd"}, {"measurement": "gadolinium uptake in liver, lung, spleen, heart and muscle", "setting": "[2]; [4]", "result": "low gadolinium uptake"}]}
{"smiles": "C[N+]1=C(C=CC=CC=C2N(CCCCCC(=O)NCCCC[C@H](NC(=O)CNC(=O)CNC(=O)[C@H](CO)NC(=O)CNC(=O)CNC(=O)[C@H](CO)NC(=O)[C@@H]3CSSC[C@H](N)C(=O)N[C@@H](CO)C(=O)N[C@@H](CCCNC(=N)N)C(=O)N[C@@H](CCCNC(=N)N)C(=O)NCC(=O)N3)C(=O)NCC(N)=O)c3ccccc3C2(C)C)C(C)(C)c2ccccc21", "note": "[Cy5-labeled probe] (H-CSRRGCSGGSGGK(Cy5(nonsulfonated))G-NH2; disulfide 1-6; N-terminus and C-terminus assumed)", "values": [{"measurement": "binding to ADAMTS4 (ligand-dependent fluorescence change), in words", "setting": "[3]", "result": "a ligand dependent fluorescence change occurs"}]}
